Measurements reported in the supplement of paper PMC9732359.
± gives the uncertainty stated by the source.

Test: protein stability index of a GFP-peptide fusion (yeast GPS) (PSI 1-4); higher = more stable; sorted into four equal gates, so the index is relative within each strain
How it was run: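 For each peptide, the protein stability index sums the read frequency in every gate after multiplying it by the gate number. Read frequencies came from plasmids that were PCR-amplified from each gate and Illumina-sequenced, with reads assigned to strains by barcodes. The gates were four equal bins of GFP/Cherry fluorescence ratio applied to mid-log yeast in leucine-free medium carrying a pooled library of tiled 17-residue yeast protein peptides fused downstream of GFP on a Cherry-expressing plasmid.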

Sequence	protein stability index (doa10∆)	protein stability index (pdr5∆)	protein stability index (san1∆)	protein stability index (ubr1∆)
LGDMENNLEKYPFRYKT [RTT102]	3.44 ± 0.073	3.39 ± 0.055	3.46 ± 0.042	3.43 ± 0.081
LGHKELKVRKGHIAKLM [RPB2]	2.54 ± 0.066	2.53 ± 0.064	1.97 ± 0.1	2.72 ± 0.047
LGKFKNIIASPLSAGFN [SIN4]	1.88 ± 0.06	1.94 ± 0.05	1.95 ± 0.09	2.04 ± 0.056
LGKVRFANYKLLLKKII [SRB4]	1.71 ± 0.063	1.62 ± 0.05	1.43 ± 0.14	1.53 ± 0.044
LGKWYSKEDYETLKRDR [ARP7]	3.31 ± 0.15	2.75 ± 0.2	3.33 ± 0.16	2.95 ± 0.15
LGLGIAFAGSKNDEVLG [RPN1]	3.09 ± 0.3	2.94 ± 0.15	2.81 ± 0.26	3.04 ± 0.14
LGNTVSTQPSFAWSKPS [YGR119C/NUP57]	2.62 ± 0.067	2.84 ± 0.056	2.85 ± 0.077	2.25 ± 0.035
LGNVIVPNILSLDMNSM [NUT1]	2.16 ± 0.06	2.17 ± 0.058	2.04 ± 0.093	2.27 ± 0.051
LGRDYPIEVDEELLQLF [IRR1]	2.19 ± 0.24	1.99 ± 0.24		1.81 ± 0.24
LGRVRNHFIFNVESAGA [RPC40]	1.38 ± 0.062	1.5 ± 0.069	1.62 ± 0.09	1.27 ± 0.065
LGSKKELGISLEHPYGK [SNU114]	3.08 ± 0.11	2.99 ± 0.13	3.1 ± 0.15	3.28 ± 0.088
LGVEDITLIDSASLHLN [RET1]	2.03 ± 0.063	1.61 ± 0.043	1.8 ± 0.1	1.8 ± 0.046
LGVVFGRGGSGWKPYYK [YML031W/NDC1]			3.4 ± 0.12	
LGWIHTQTEELKFMAAS [PRP8]	2.59 ± 0.087	2.62 ± 0.077	2.64 ± 0.063	2.71 ± 0.063
LHGNAKKAAEEAGVTDV [FAS2]	3.42 ± 0.12	3.18 ± 0.12	3.13 ± 0.12	3.34 ± 0.15
LHIHGSSNPLGITGNLD [COB]	2.92 ± 0.087	2.91 ± 0.078	2.7 ± 0.05	2.66 ± 0.054
LHPQLHEVQYQESSSTL [SIN4]	2.28 ± 0.049	2.5 ± 0.041	2.41 ± 0.07	2.3 ± 0.035
LHPYVPSSKPQEQVYPD [SRB8]	2.81 ± 0.24	2.92 ± 0.12	3.08 ± 0.093	3.25 ± 0.15
LHVVSKSSIEKDPSPEI [SIN4]	2.91 ± 0.054	3.03 ± 0.066	3.13 ± 0.052	3.14 ± 0.051
LIAVYYSFGGLLMRLEG [RPB8]	2.69 ± 0.059	2.79 ± 0.076	3.07 ± 0.1	2.89 ± 0.069
LIELLTQMDGFDQSTNV [RPT3]	2.33 ± 0.088	2.19 ± 0.075	1.56 ± 0.15	2.05 ± 0.08
LIETVFVKNIRMLSFED [RPN9]	2.19 ± 0.044	1.89 ± 0.05	1.78 ± 0.066	1.97 ± 0.041
LIFIACNDEDKDLETLY [ECM29]	3.11 ± 0.084	3.04 ± 0.067	2.3 ± 0.089	2.92 ± 0.035
LIIVTRKNYMHVKNFGF [YML031W/NDC1]	1.22 ± 0.042	1.52 ± 0.048	1.51 ± 0.1	1.87 ± 0.04
LIKDNSAMVTTAAAADI [SRB2]		1.78 ± 0.29		
LIKNGKKVTAFVPNDGC [RPS23A]	3.03 ± 0.11	3.31 ± 0.061	3.45 ± 0.039	3.38 ± 0.054

Sequence	protein stability index (doa10∆)	protein stability index (pdr5∆)	protein stability index (san1∆)	protein stability index (ubr1∆)
LIKQVPRLLGPQLSKAG [RPL1A]	1.98 ± 0.068	1.73 ± 0.06	1.78 ± 0.081	1.6 ± 0.059
LIKTLSTLHMLGYTHIA [RPP1]	2.49 ± 0.081	2.65 ± 0.087	2.62 ± 0.099	2.65 ± 0.071
LINEILLKSNDPLLSLY [RGR1]	2.04 ± 0.046	2.15 ± 0.043	1.87 ± 0.077	2.13 ± 0.035
LIQQVPPGLDALVKPET [CDC53]	3.02 ± 0.12	2.98 ± 0.13	2.83 ± 0.13	3.24 ± 0.14
LIRLQMEKLDAKLNHLK [SWI3]	3.06 ± 0.17	3.04 ± 0.15	2.85 ± 0.15	3.1 ± 0.2
LISGKAGVLNGTLEYGT [RET1]	2.83 ± 0.056	3.03 ± 0.062	3.02 ± 0.063	2.99 ± 0.059
LISLIMTTWRKLYTKEL [YMR129W/POM152]	2.35 ± 0.092	1.15 ± 0.093	1.42 ± 0.17	1.16 ± 0.044
LISRMIFIATQLEKKIR [BRR2]	1.75 ± 0.075	1.9 ± 0.059	1.28 ± 0.12	2.03 ± 0.054
LKALSHHYNPKTKKLNL [BRR2]	2.46 ± 0.088	2.4 ± 0.086	2.33 ± 0.11	2.69 ± 0.053
LKEILNVAKNMKTPSLT [RPO21]	3.33 ± 0.12	3.06 ± 0.11	3.1 ± 0.072	3.47 ± 0.12
LKESYSQKHNGRILKWL [CDC53]	2.01 ± 0.059	2.69 ± 0.057	2.34 ± 0.055	2.14 ± 0.056
LKETVIPSLANNGNNST [POP6]	2.41 ± 0.058	3.01 ± 0.065	2.54 ± 0.068	2.56 ± 0.05
LKFAVQVDKVTKEKVNG [RPL26A]	3.23 ± 0.21	3.4 ± 0.16	2.71 ± 0.11	3.01 ± 0.069
LKFNSTEYRGTLVSTDN [SMX3]	1.74 ± 0.04	2.59 ± 0.049	2.27 ± 0.067	2.25 ± 0.041
LKFVKVRVRTTKIPQIG [RPB2]	2.51 ± 0.073	2.55 ± 0.079	2.85 ± 0.13	2.52 ± 0.04
LKGLNGFPSAPQPLFME [YMR153W/NUP53]	2.53 ± 0.067	3.04 ± 0.066	2.85 ± 0.067	2.69 ± 0.062
LKGRVVEVCLADLQGSE [RPS1A]	2.65 ± 0.062	3.08 ± 0.071	2.51 ± 0.076	2.49 ± 0.055
LKKANIIYHTTFSWLNA [YLR018C/POM34]	2.46 ± 0.043	2.45 ± 0.044	2.41 ± 0.043	2.54 ± 0.036
LKKGEVSLGTSIMAVTF [PRE3]		1.67 ± 0.23	1.13 ± 0.18	1.13 ± 0.18
LKNLLRSNFRVNLSQEA [SNU114]	2.05 ± 0.093	2.26 ± 0.089	2.58 ± 0.11	2.58 ± 0.11
LKNTKYFQQTTIDWVEA [PRP8]	2.93 ± 0.078	2.96 ± 0.08	2.83 ± 0.054	2.75 ± 0.072
LKPVDKLKPMNIERKQT [SIN4]	2.82 ± 0.11	3.05 ± 0.11	2.83 ± 0.088	3.04 ± 0.11
LKTFNGSLALLKLSMAD [POP4]	2.33 ± 0.046	2.33 ± 0.067	2.45 ± 0.063	2.36 ± 0.036
LKVRKGHIAKLMATEYQ [RPB2]	2.52 ± 0.14	2.33 ± 0.13	1.28 ± 0.19	1.86 ± 0.057
LKWIDTASKFGKGRFQT [RPL3]	3.34 ± 0.11	3.06 ± 0.094	3.11 ± 0.071	3.09 ± 0.065
LLDVKLAIDNMYILGMC [YCG1]	1.56 ± 0.086	1.51 ± 0.051	1.86 ± 0.071	2.12 ± 0.05
